Experimental data as given in paper PMC6981161.
Where no end group is shown, it is not given here. The star is where a group is joined. Biotin = O=C1N[C@H]2[C@H](CS[C@H]2CCCCC(=O)*)N1

Key:
[1] = target: proteins of hBMECs (protein extract coated in microtiter wells, ELISA with recombinant ligands) (human (endogenous in hBMECs)); assay: ELISA; protein extract of hBMECs coated in microtiter wells, blocked; recombinant ligand added; detected with HisProbe-HRP conjugate and TMB substrate, absorbance at 450 nm; semi-quantitative
[2] = target: proteins of hBMECs (protein extract coated in microtiter wells, ELISA with synthetic analogues) (human (endogenous in hBMECs)); assay: ELISA; protein extract of hBMECs coated in microtiter wells, blocked; biotinylated synthetic peptide added; detected with streptavidin-HRP conjugate; semi-quantitative

“recombinant NadA (neisserial adhesin A) of Neisseria meningitidis, globular domain with the first coiled-coil structure (domain or fragment)” was tested, and the absorbance at 450 nm (absorbance at 450 nm) [1] was 1.14.

“recombinant domain III of protein E of West Nile virus (domain or fragment)” gave an absorbance at 450 nm (absorbance at 450 nm) [1] of 2.2.

In the case of GTTYGVCSK(Biotin) [DIII-1 synthetic analogue (…-biotin)], the absorbance [2] is reported as 2.06 absorbance.
